Test results from patent US20050025760A1 (KEIO UNIVERSITY, published 2005).

How the values were obtained:
[1] = biological target: T1, recombinant protein human Dsg1-His (human, UniProt Q02413 50-548); assay: ELISA on recombinant human Dsg1-His
T1 construct: extracellular domain; Baculovirus product; not shown: C-terminal His tag
T1 sequence (looked up): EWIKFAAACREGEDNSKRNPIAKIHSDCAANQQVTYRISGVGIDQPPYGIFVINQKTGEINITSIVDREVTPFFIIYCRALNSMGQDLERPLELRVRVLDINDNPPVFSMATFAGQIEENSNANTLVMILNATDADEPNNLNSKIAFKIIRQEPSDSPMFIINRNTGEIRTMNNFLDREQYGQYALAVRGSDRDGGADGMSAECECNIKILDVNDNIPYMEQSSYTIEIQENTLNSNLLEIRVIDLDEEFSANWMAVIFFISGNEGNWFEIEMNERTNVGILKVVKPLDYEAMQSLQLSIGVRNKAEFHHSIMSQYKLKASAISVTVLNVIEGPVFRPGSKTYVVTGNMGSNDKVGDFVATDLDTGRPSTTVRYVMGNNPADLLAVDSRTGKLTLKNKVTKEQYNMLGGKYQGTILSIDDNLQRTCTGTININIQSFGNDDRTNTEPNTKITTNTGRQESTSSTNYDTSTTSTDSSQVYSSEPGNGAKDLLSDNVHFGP
Description: The baculovirus vectors, pEVmod-Dsg3-His and pEVmod-Dsg1-His, pEVmod-mouse Dsg3-His and pEVmod-mouse Dsg1 -His, that were constructed according to the method as described previously (J. Immunol. 159, 2010-2017, 1997) were used. These recombinant baculoviruses were infected to insect cells, High Five (Invitrogen Corporation), then the recombinant protein human Dsg3-His and Dsg1-His, recombinant protein mouse Dsg3-His and Dsg1-His were collected from the culture media, respectively. In addition, purification of these recombinant proteins was conducted using Ni-NTA column. These purified recombinant proteins were coated on ELISA (Enzyme Linked Immunosorbent Assay) plates, respectively, 50 μl each of the culture supernatant of the anti-Dsg3 monoclonal antibody-producing hybridoma was added to each well, and ELISA was practiced according to the method as previously described (J Clin Invest 105, 625-631, 2000). PV mouse model 1 serum with moderate degree of antibody titer was selected as a positive control, and 1 serum of normal mouse serum was selected as a negative control. Absorbance was determined at wavelength 450 nm (Bio-rad, Hercules, Calif. USA), and the index was shown by the following formula. Index={OD(specimen)−OD(negative control)}/{OD(positive control)−OD(negative control)}×100 A-2 (Living Cell Staining using Culture Mouse Keratinocyte PAM 212)

[2] = biological target: T2, inactivated Dsg3 protein having a pro-sequence (mouse, UniProt O35902 24-617, limits assumed); assay: immunoprecipitation and immunoblotting of recombinant Dsg3 (FIG. 7b)
T2 construct: the sentence on immunoblotting itself says only 'Dsg3'; also called protein with large molecular weight; not shown: His tag
T2 sequence (looked up): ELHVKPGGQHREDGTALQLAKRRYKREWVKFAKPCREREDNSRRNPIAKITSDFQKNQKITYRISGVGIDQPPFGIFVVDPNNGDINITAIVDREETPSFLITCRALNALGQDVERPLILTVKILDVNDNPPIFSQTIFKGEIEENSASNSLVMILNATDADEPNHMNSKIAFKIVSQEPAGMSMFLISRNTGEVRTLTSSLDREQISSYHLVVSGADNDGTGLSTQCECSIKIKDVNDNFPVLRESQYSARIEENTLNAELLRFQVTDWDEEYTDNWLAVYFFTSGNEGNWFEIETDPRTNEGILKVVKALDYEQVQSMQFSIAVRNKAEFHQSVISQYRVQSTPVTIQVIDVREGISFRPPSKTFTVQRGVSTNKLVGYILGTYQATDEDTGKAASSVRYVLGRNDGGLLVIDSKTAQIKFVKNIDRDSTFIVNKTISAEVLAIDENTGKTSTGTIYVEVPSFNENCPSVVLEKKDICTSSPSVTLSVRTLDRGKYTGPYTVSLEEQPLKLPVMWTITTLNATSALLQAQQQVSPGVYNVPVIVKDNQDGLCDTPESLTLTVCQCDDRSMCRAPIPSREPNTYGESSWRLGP
Protocol: Then 10 μl of protein G (Protein G sepharose 4 fast flow: Amersham Pharmacia Biotech, Buckinghamshire, England) was added and reacted overnight at […]. Centrifugation was conducted after the reaction, and 50 μl of SDS was added to the precipitate and boiled for 2 minutes. Each sample was subjected to electrophoresis with a 7.5% uniform gel plate for electrophoresis (multigel 7.5: Daiichi Pure Chemicals, Tokyo, Japan), transcribed to PVDF membrane, then blocked. Further, 100-fold diluted anti-6X histidine antibody (R&D systems, Inc. Minn., USA) was reacted for 1 hour at room temperature, washed (3 times) in TBS (Tris buffered saline), then 1000-fold diluted alkaline phosphatase-goat anti-mouse IgG (Zymed, San Francisco, Calif., USA) was reacted for 1 hour at room temperature, washed (3 times) in TBS, then developed.
To characterize the epitopes of monoclonal antibodes such as AK23 and the like, it was first determined whether the binding to Dsg3 of the antibodies is calcium-dependent or not. Recombinant mouse Dsg3-His was treated with or without EDTA, and then subjected to immunoprecipitation with the AK antibodies. EDTA treatment abolished the reactivity of AK19 and AK23 antibodies, but not the reactivity of the other AK antibodies (Table 3, FIG. 7a). […]

binding result [1]: no binding
binding result [2]: no binding
B1: anti-Dsg3 monoclonal antibody AK23 (antibody, mouse IgG1, V domains shown)
VH: QVQLQQSGTELVKPGASVKLSCKSSGYTFTSYWINWVKQRPGQGLEWIGNINPSNGGINYNEKFKSKATLTVDKSSSTAYMQLKSLTSEDSAVYYCARGGYDGYPWGQGTTVTVS
VL: DIQMTQSPKFLLVSAGDRVTITCKASQSVSYDVAWYQQKPGQSPKLLISYASNRYTGVPDRFTGSGYGSDFTFTISTVQTEDLAVYFCQQDYSSPWTFGGGTKLELKR
notes: Mouse IgG1 kappa hybridoma antibody
